From article PMC11166852, “Low-temperature features of the psychrophilic chaperonin from Pseudoalteromonas haloplanktis” (Archives of Microbiology, 2024)
Blank lines part the entries; values can stand above or below the molecule they belong to.

How the values were obtained:
[1] = biological target: Cpn60 from Pseudoalteromonas haloplanktis (Pseudoalteromonas haloplanktis); assay: negative-stain electron microscopy; 0.125 µM Cpn60 in buffer C preincubated at 5 °C or 25 °C; where indicated 1 mM ATP, 1 mM ADP and 0.375 µM Cpn10; 1% uranyl acetate
[2] = biological target: Cpn60 from Pseudoalteromonas haloplanktis (Pseudoalteromonas haloplanktis); assay: native gel or EMSA; native PAGE of purified proteins, Coomassie brilliant blue staining
[3] = biological target: Cpn60 from Pseudoalteromonas haloplanktis (Pseudoalteromonas haloplanktis); assay: SEC; analytical gel filtration, Superdex 75 GL (10/300), buffer C (20 mM MOPS pH 7.2, 150 mM KCl, 5 mM MgCl2), run at 5 °C, in the absence or presence of 1 mM ATP
[4] = biological target: single-ring SR-GroEL (Escherichia coli) (UniProt P0A6F5); assay: as above
[5] = biological target: Cpn60 from Pseudoalteromonas haloplanktis (Pseudoalteromonas haloplanktis)
Escherichia coli GroEL = biological target: T1, Escherichia coli GroEL (Escherichia coli, UniProt P0A6F5 1-548, fluorophore from the NT-647-NHS labeling kit (in the MST measurements only)); assay: MST; Cpn60 labelled with NT-647-NHS, serial dilutions of Cpn10 in buffer C with 1 mM ADP, 25 °C, Monolith NT.115, MST power 80%; settings: both partners purified
T1 construct: GroEL (Cpn60) of Escherichia coli; Tetradecamer (MW 800 kDa); also called Ec GroEL; Ec chaperonin; source: E. coli, purified as described (Weissman et al. 1995; Hayer-Hartl et al. 1996; Kusmiercyk and Martin 2000); copies: 14

[6] = biological target: Cpn60 from Pseudoalteromonas haloplanktis (Pseudoalteromonas haloplanktis); assay: as above

T1 sequence (P0A6F5 whole entry): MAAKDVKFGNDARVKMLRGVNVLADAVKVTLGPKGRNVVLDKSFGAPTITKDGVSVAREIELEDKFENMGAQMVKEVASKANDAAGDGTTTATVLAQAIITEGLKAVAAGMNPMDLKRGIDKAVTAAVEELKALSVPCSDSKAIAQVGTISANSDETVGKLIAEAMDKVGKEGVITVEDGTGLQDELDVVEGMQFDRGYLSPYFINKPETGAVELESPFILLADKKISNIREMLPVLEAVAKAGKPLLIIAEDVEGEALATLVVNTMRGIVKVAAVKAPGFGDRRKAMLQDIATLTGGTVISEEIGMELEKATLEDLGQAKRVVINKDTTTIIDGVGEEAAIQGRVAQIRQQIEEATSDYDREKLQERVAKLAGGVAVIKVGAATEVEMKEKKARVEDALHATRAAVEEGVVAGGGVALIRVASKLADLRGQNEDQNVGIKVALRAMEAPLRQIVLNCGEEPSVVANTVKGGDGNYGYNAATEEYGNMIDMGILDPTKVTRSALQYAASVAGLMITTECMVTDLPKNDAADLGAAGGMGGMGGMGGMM

stoichiometry N [1]: 14 | stoichiometry N [2]: 14 | stoichiometry N [3]: 14
Molecule: Cpn60 from Pseudoalteromonas haloplanktis (natural protein)

stoichiometry N [4]: 7
Molecule: single-ring SR-GroEL (from UniProt P0A6F5 1-548) (natural protein)

stimulation of Ph Cpn60 ATPase by a five-fold molar excess of α-casein (10 °C and 25 °C, with or without Ph Cpn10) [5]: 3 fold
Molecule: α-casein (from UniProt P02662 16-214) (natural protein)

Kd (Escherichia coli GroEL): 8.8 ± 1.8 nM
B1: Escherichia coli GroES (natural protein, UniProt P0A6F9 1-97, looked up)
chain: MNIRPLHDRVIVKRKEVETKSAGGIVLTGSAAAKSTRGEVLAVGNGRILENGEVKPLDVKVGDIVIFNDGYGVKSEKIDNEEVLIMSESDILAIVEA
notes: GroES (Cpn10) of Escherichia coli; also called Ec GroES; source: E. coli, purified as described (Weissman et al. 1995; Hayer-Hartl et al. 1996; Kusmiercyk and Martin 2000)

Kd [6]: 352 nM
B2: Cpn10 from Pseudoalteromonas haloplanktis (natural protein)
chain: MNIRPLHDRVIVKRLEEETKSAGGIVLTGSAAEKSTRGEVVAVGNGRTLDNGDVRALEVKVGDTVLFGSYVEKAEKIEGQEYLIMREDNILGIVG
